Results as given in the Immune Epitope Database (IEDB).

Tests used:
Assay in all cases: IEDB peptide-MHC binding, purified MHC/competitive/fluorescence; filed as Kd, often an IC50 or EC50 that approximates it; ≥ and ≤ were set here for values at or beyond the usual limits of such assays
Conditions in all cases: source organism: Plasmodium falciparum
HLA-B*44:02 = target: HLA-B*44:02
HLA-A*01:01 = target: HLA-A*01:01
HLA-A*02:01 = target: HLA-A*02:01
HLA-A*03:01 = target: HLA-A*03:01
HLA-B*07:02 = target: HLA-B*07:02
HLA-A*24:02 = target: HLA-A*24:02

IEQYLKKIQY showed a Kd (HLA-B*44:02) of no less than 157 µM and a Kd (HLA-A*01:01) of no less than 100 µM.

With NEEPSDQHI the Kd (HLA-B*44:02) was no less than 100 µM.

With YLKKIQYSL the Kd (HLA-A*02:01) was 2.58 µM.

For STEWSPCSV, the Kd (HLA-A*01:01) was 3.18 µM.

TEYLKKIQN was tested, and the Kd (HLA-B*44:02) was no less than 100 µM.

Sequence TEWSPCSVT has a Kd (HLA-B*44:02) of no less than 100 µM.

Work on LDYANDIEK yielded a Kd (HLA-A*03:01) of no less than 100 µM.

IEKKICKMEK was tested, and the Kd (HLA-A*03:01) was no less than 100 µM.

Work on SVFNVVNSSI yielded a Kd (HLA-B*07:02) of no less than 100 µM, a Kd (HLA-A*02:01) of no less than 342 µM and a Kd (HLA-A*03:01) of no less than 100 µM.

QLDYENDIEK was tested, and the Kd (HLA-A*01:01) was no less than 726 µM and the Kd (HLA-A*03:01) was no less than 100 µM.

In the case of PSDKHIEQY, the Kd (HLA-A*01:01) is reported as 2 µM.

In the case of KPGSANKPKD, the Kd (HLA-B*07:02) is reported as no less than 100 µM.

With CKMEKCSSV the Kd (HLA-A*02:01) was no less than 100 µM.

HIKEYLNKI gave a Kd (HLA-A*02:01) of no less than 259 µM.

With NVDPNANPNV the Kd (HLA-A*01:01) was no less than 100 µM.

In the case of SPCSVTCGNG, the Kd (HLA-B*07:02) is reported as no less than 100 µM.

Work on MEKCSSVFN yielded a Kd (HLA-B*44:02) of no less than 143 µM.

YLKKIQNSL was tested, and the Kd (HLA-B*07:02) was 9.2 µM, the Kd (HLA-A*02:01) was 2.18 µM and the Kd (HLA-A*24:02) was 11.2 µM.

Sequence NVDENANAN has a Kd (HLA-A*01:01) of no less than 100 µM.

VTCGNGIQV was tested, and the Kd (HLA-A*01:01) was no less than 100 µM and the Kd (HLA-A*03:01) was no less than 100 µM.

With LIMVLSFLF the Kd (HLA-A*24:02) was 19.3 µM.

In the case of LSTEWSPCS, the Kd (HLA-A*01:01) is reported as no less than 100 µM.

PSDKHIKEY gave a Kd (HLA-A*01:01) of no less than 24.8 µM.

With MPNDPNRNV the Kd (HLA-B*07:02) was no less than 511 µM and the Kd (HLA-B*44:02) was no less than 100 µM.

For IQNSLSTEW, the Kd (HLA-B*44:02) was no less than 136 µM and the Kd (HLA-A*24:02) was no less than 21.3 µM.

NPNANPNAN was tested, and the Kd (HLA-B*07:02) was no less than 100 µM.

With NEEPSDKHI the Kd (HLA-B*44:02) was no less than 100 µM.

Sequence SVTCGNGIQV has a Kd (HLA-B*07:02) of no less than 100 µM and a Kd (HLA-A*02:01) of no less than 489 µM.

Work on RIKPGSADK yielded a Kd (HLA-A*03:01) of 17.7 µM.

Sequence NEEPSDKHIK has a Kd (HLA-B*44:02) of no less than 100 µM and a Kd (HLA-A*01:01) of no less than 100 µM.

In the case of QVRIKPGSA, the Kd (HLA-B*07:02) is reported as no less than 134 µM.

KDELDYENDI was tested, and the Kd (HLA-B*44:02) was no less than 100 µM.

Sequence KMEKCSSVF has a Kd (HLA-B*07:02) of no less than 100 µM and a Kd (HLA-A*01:01) of no less than 100 µM.

Sequence SADKPKDQLD has a Kd (HLA-A*01:01) of 8.97 µM.

With HITEYLKKI the Kd (HLA-A*02:01) was no less than 148 µM.

For EWSPCSVTCG, the Kd (HLA-A*24:02) was no less than 685 µM.

NPDPNANPNV was tested, and the Kd (HLA-B*07:02) was no less than 100 µM.

KPGSADKPKD showed a Kd (HLA-B*07:02) of no less than 100 µM.

ELDYENDIEK was tested, and the Kd (HLA-A*01:01) was no less than 100 µM.

CKMEKCSSVF was tested, and the Kd (HLA-A*24:02) was no less than 250 µM.

DELDYANDI gave a Kd (HLA-B*44:02) of no less than 277 µM.

RIKPGSANK was tested, and the Kd (HLA-A*03:01) was no less than 21.3 µM.

DENANANNA gave a Kd (HLA-B*44:02) of no less than 896 µM.

With KEYLNKIQNS the Kd (HLA-B*44:02) was no less than 100 µM.

NVDENANANN showed a Kd (HLA-A*01:01) of no less than 667 µM.

Work on NPNANPNANP yielded a Kd (HLA-B*07:02) of no less than 100 µM.

In the case of CSSVFNVVN, the Kd (HLA-A*01:01) is reported as no less than 82.5 µM.

For NPNVDPNANP, the Kd (HLA-B*07:02) was no less than 100 µM.

PSDKHITEY showed a Kd (HLA-A*01:01) of 2.67 µM.

Work on YLKIIQNSL yielded a Kd (HLA-A*02:01) of 4.88 µM.

Work on NSSIGLIMV yielded a Kd (HLA-A*01:01) of no less than 215 µM.
